Biological target: T1, PUS7(Δ1-98) (Homo sapiens, UniProt Q96PZ0 99-661, del1-98)
T1 sequence: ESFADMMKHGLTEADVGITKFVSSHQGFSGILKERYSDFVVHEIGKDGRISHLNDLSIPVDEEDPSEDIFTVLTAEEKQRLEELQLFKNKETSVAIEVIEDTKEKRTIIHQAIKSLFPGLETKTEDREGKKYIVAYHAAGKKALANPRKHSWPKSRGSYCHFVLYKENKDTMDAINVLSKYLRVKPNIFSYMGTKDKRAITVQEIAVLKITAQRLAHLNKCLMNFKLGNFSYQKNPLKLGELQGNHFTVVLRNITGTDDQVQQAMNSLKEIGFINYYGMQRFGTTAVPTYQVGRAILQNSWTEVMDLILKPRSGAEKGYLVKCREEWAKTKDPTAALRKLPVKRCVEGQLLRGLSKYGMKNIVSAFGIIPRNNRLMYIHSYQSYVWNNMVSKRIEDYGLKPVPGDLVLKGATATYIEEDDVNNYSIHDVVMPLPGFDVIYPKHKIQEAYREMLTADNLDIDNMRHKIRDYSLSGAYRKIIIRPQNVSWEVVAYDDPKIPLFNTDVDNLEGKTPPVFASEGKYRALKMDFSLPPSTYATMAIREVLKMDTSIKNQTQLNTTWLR
Assay: filter binding

GGGGCCCCAUGGUGUAAUGG (ssRNA) [18mer-cy-tRNAGln]
Kd: 267 ± 91 nM

Source: paper PMC8599909
